The numbers were not newly measured in PMC7154116, which cites them from elsewhere.

For orientation: pKd means the negative decadic logarithm of the Kd, by convention in mol/L.

For this series, the target named is NTSR3/sortilin (UniProt Q99523).

pKd: −log10 of the molar value.

UniProt Q99523, sequence (Q99523 78-755): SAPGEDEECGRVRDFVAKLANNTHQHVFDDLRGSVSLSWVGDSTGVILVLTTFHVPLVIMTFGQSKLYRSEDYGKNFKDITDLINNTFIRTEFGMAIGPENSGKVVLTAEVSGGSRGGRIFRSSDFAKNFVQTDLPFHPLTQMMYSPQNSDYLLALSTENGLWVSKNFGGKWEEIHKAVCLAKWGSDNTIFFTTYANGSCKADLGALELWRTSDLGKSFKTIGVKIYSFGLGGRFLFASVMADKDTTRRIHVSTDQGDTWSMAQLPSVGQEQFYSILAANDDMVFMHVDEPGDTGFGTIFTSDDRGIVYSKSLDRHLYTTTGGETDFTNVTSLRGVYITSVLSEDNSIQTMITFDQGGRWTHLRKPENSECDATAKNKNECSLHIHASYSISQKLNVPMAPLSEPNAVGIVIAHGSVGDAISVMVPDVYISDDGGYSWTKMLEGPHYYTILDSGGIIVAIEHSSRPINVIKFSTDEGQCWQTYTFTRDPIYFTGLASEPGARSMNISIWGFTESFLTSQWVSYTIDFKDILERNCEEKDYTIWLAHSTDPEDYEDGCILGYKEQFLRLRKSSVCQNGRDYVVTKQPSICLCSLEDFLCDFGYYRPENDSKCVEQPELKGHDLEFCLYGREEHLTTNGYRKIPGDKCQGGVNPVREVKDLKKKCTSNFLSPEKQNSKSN

On to “Spadin propeptide fragment (from UniProt Q99523)”, for which the negative logarithm of the Kd (pKd) is 8.10.
